From publication PMC7354924, “Repulsive guidance molecules lock growth differentiation factor 5 in an inhibitory complex” (Proceedings of the National Academy of Sciences of the …, 2020)
Substitutions are numbered along the chain they refer to.

T1: growth differentiation factor 5 (GDF5), wild type (human, UniProt P43026 28-501)
T1 construct: GDF5, human, UniProt P43026; Disulfide-linked dimer without glycans; also called BMP14; CDMP1
T1 sequence (looked up): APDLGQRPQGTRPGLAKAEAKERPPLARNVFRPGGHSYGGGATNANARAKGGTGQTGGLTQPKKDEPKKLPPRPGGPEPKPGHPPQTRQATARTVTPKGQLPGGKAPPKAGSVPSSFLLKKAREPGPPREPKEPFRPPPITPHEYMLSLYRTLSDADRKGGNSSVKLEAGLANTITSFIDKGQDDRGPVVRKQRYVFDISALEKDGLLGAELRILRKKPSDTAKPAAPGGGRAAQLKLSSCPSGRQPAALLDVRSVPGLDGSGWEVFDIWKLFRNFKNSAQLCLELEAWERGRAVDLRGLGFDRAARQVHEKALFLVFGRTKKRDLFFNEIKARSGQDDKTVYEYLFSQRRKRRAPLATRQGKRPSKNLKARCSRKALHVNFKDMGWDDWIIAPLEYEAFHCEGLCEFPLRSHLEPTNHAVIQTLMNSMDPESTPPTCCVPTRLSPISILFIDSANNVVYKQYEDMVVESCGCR

T2: growth differentiation factor 5 (GDF5), wild type (UniProt P43026 382-501)
T2 sequence (looked up): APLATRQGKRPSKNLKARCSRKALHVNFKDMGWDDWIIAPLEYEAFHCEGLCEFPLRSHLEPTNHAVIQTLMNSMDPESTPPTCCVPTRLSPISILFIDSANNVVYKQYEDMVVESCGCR

T3: GDF5 variant Tyr487Lys/Gln489Asp (UniProt P43026 28-501, Tyr487Lys | Gln489Asp)
T3 construct: GDF5 with Tyr487Lys and Gln489Asp
T3 sequence (looked up): T1 sequence (looked up) with Y460K, Q462D

B1: N-terminal domain of human RGMB (RGMBND, Gln53-His136) (domain or fragment)
chain: ETGQCRIQKCTTDFVSLTSHLNSAVDGFDSEFCKALRAYAGCTQRTSKACRGNLVYHSAVLGISDLMSQRNCSKDGPTSSTNPEVTHGTKHHHHHH
B2: RGMBND His106Leu (domain or fragment)
chain: B1 chain with H57L
B3: RGMBND His106Asn (domain or fragment)
chain: B1 chain with H57N
B4: extracellular domain of human RGMB (RGMBECD, Gln53–Ser411) (domain or fragment)
chain: ETGQCRIQKCTTDFVSLTSHLNSAVDGFDSEFCKALRAYAGCTQRTSKACRGNLVYHSAVLGISDLMSQRNCSKDGPTSSTNPEVTHDPCNYHSHAGAREHRRGDQNPPSYLFCGLFGDPHLRTFKDNFQTCKVEGAWPLIDNNYLSVQVTNVPVVPGSSATATNKITIIFKAHHGCTDQKVYQAVTDDLPAAFVDGTTSGGDSDAKSLRIVERESGHYVEMHARYIGTTVFVRQVGRYLTLAIRMPEDLAMSYEESQDLQLCVNGCPLSERIDDGQGQVSAILGHSLPRTSLVQAWPGYTLETANTQCHEKMPVKDIYFQSCVFDLLTTGDANFTAAAHSALEDVEALHPRKERWHIFPSSGTKHHHHHH
modifications: Asn-linked glycans cut down to one N-acetylglucosamine for crystallization
B5: soluble RGMC extracellular domain (RGMCECD) for the ProteOn SPR studies (domain or fragment, human, UniProt Q6ZVN8 36-400, looked up)
chain: QCKILRCNAEYVSSTLSLRGGGSSGALRGGGGGGRGGGVGSGGLCRALRSYALCTRRTARTCRGDLAFHSAVHGIEDLMIQHNCSRQGPTAPPPPRGPALPGAGSGLPAPDPCDYEGRFSRLHGRPPGFLHCASFGDPHVRSFHHHFHTCRVQGAWPLLDNDFLFVQATSSPMALGANATATRKLTIIFKNMQECIDQKVYQAEVDNLPVAFEDGSINGGDRPGGSSLSIQTANPGNHVEIQAAYIGTTIIIRQTAGQLSFSIKVAEDVAMAFSAEQDLQLCVGGCPPSQRLSRSERNRRGAITIDTARRLCKEGLPVEDAYFHSCVFDVLISGDPNFTVAAQAALEDARAFLPDLEKLHLFPSD
B6: N-terminal domain of human RGMB (RGMBND, Gln53–His136) (domain or fragment)
chain: B1 chain
modifications: N-linked glycan on Asn120 (cut down to one N-acetylglucosamine for crystallization; kept fully glycosylated for binding assays); methylated for crystal form 2
B7: N-terminal domain of human RGMC (RGMCND, Gln36–Pro145) (domain or fragment)
chain: ETGQCKILRCNAEYVSSTLSLRGGGSSGALRGGGGGGRGGGVGSGGLCRALRSYALCTRRTARTCRGDLAFHSAVHGIEDLMIQHNCSRQGPTAPPPPRGPALPGAGSGLPAP
modifications: Asn-linked glycans cut down to one N-acetylglucosamine for crystallization; kept fully glycosylated for binding assays
notes: Glu-Thr-Gly from the pHLsec vector, after the N-terminal secretion signal; human RGMC (Hemojuvelin), N-terminal domain, residues Gln36–Pro145 of UniProtKB Q6ZVN8-1; also called Hemojuvelin; HFE2; source: HEK-293T, transient transfection, secreted, purified (IMAC, SEC)
B8: RGMCND Gly99Arg (domain or fragment, human)
chain: B7 chain with G67R
notes: Glu-Thr-Gly from the pHLsec vector, after the N-terminal secretion signal; human RGMC, N-terminal domain, residues Gln36–Pro145 of UniProtKB Q6ZVN8-1, with Gly99Arg; Made by site-directed mutagenesis of the RGMCND construct; also called RGMC Gly99Arg; juvenile hemochromatosis-causing mutation; source: HEK-293T, transient transfection, secreted, purified (IMAC, SEC in SPR running buffer)
B9: N-terminal domain of human RGMA (RGMAND, Ser46–Ser139) (domain or fragment)
chain: ETGSPCKILKCNSEFWSATSGSHAPASDDTPEFCAALRSYALCTRRTARTCRGDLAYHSAVHGIEDLMSQHNCSKDGPTSQPRLRTLPPAGDSQERS
modifications: Asn-linked glycans cut down to one N-acetylglucosamine for crystallization; kept fully glycosylated for binding assays
notes: Glu-Thr-Gly from the pHLsec vector, after the N-terminal secretion signal; human RGMA, N-terminal domain, residues Ser46–Ser139 of UniProtKB Q96B86-1; source: HEK-293T, transient transfection, secreted, purified (IMAC, SEC)
B10: RGMBND Gly101Arg (domain or fragment)
chain: QCRIQKCTTDFVSLTSHLNSAVDGFDSEFCKALRAYAGCTQRTSKACRRNLVYHSAVLGISDLMSQRNCSKDGPTSSTNPEVTH

What was measured:
[1] = target: T1, growth differentiation factor 5 (GDF5), …; assay: SPR; Biacore T200, 25 °C; GDF5 amine-coupled to a CM5 chip (830, 970 or 1370 RU); RGMBND variants or BSA as analytes; 0.5 M NaCl, 20 mM HEPES pH 7.4, 0.05% (v/v) Tween 20; Kd from the dose-dependency of equilibrium binding, 1:1 Langmuir isotherm; settings: both partners purified
[2] = target: T2, growth differentiation factor 5 (GDF5), …; assay: cell-based or functional assay
[3] = target: T2, growth differentiation factor 5 (GDF5), …; assay: SPR; Biacore T200, 25 °C; GDF5 and BMP2 covalently linked to a CM5 chip by primary amine coupling, RGMs as analytes; 0.5 M NaCl, 20 mM Hepes pH 7.4, 0.05% Tween 20; equilibrium binding, 1:1 Langmuir isotherm; apparent affinity; settings: both partners purified
[4] = target: T4, bone morphogenetic protein 2 (BMP2) (UniProt P12643 283-396); assay: cell-based or functional assay
T4 sequence (P12643 283-396): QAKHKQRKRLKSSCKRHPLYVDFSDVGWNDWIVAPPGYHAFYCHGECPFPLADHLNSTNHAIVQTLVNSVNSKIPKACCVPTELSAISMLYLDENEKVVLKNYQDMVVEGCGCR

[5] = target: T3, GDF5 variant Tyr487Lys/Gln489Asp; assay: SEC-MALS; RGMBND–GDF5(Tyr487Lys/Gln489Asp)–ActR2bECD complex, 1 mg/mL, Superdex 200 HR 10/30, 0.5 M NaCl, 20 mM Hepes pH 7.4, 21 °C; settings: both partners purified
[6] = target: T4, bone morphogenetic protein 2 (BMP2); assay: SPR; Biacore T200, 25 °C; GDF5 and BMP2 covalently linked to a CM5 chip by primary amine coupling, RGMs as analytes; 0.5 M NaCl, 20 mM Hepes pH 7.4, 0.05% Tween 20; equilibrium binding, 1:1 Langmuir isotherm; apparent affinity; settings: both partners purified
[7] = target: T2, growth differentiation factor 5 (GDF5), …; assay: SEC-MALS; RGMBND–GDF5 complex, 1 mg/mL, Superdex 200 HR 10/30, 0.5 M NaCl, 20 mM Hepes pH 7.5, 21 °C; settings: both partners purified

Binder	Kd [1]	Kd [3]	also measured
B1	1.8 µM		
B2	> 200 µM		
B3	> 150 µM		
B4		8.8 µM	GDF5 (30 nM) BMP-responsive luciferase reporter in LLC-PK1 cells expressing full-length membrane-anchored RGMB [2]: ~3 fold
B5			BMP2 (3 nM) BMP-responsive luciferase reporter in LLC-PK1 cells expressing full-length membrane-anchored RGMC [4]: ~3 fold
B6		2.7 µM	stoichiometry N [5]: 2 RGMBND per GDF5 dimer (2:2:2 by chains); Kd [6]: 20.1 µM; stoichiometry N [7]: 2 RGMB per disulfide-linked GDF5 dimer (2:2 by chains)
B7		3.9 µM	
B8		> 20 µM	
B9		16.7 µM	
B10		> 150 µM	
